In article PMC9482650, “Quantitative fragmentomics allow affinity mapping of interactomes” (Nature Communications, 2022):

Columns and labels:
Test in all cases: holdup assay
Design in all cases: key: below the threshold = too weak to quantify, mostly under pKd 3.1 to 4
LIN7C, Q9NUP9 = molecular target: T1, LIN7C, Q9NUP9
T1 sequence (Q9NUP9 88-185, limits assumed, looked up): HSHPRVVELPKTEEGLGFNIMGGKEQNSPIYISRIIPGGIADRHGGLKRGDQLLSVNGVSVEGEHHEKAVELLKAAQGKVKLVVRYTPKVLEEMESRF

FRMPD2_1, Q68DX3 = molecular target: FRMPD2_1, Q68DX3
SNTG2, Q9NY99 = molecular target: T2, SNTG2, Q9NY99
T2 sequence (Q9NY99 68-166, limits assumed, looked up): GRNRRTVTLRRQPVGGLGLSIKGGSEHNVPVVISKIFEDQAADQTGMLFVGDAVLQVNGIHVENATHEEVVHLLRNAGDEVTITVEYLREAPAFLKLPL

PARD3B_1, Q8TEW8 = molecular target: T3, PARD3B_1, Q8TEW8
T3 sequence (Q8TEW8 196-299, limits assumed, looked up): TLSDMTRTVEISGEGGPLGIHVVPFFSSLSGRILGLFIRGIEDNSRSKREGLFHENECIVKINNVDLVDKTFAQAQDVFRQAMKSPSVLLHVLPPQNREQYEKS

DLG1_2, Q12959 = molecular target: DLG1_2, Q12959
ARHGEF11, O15085 = molecular target: T4, ARHGEF11, O15085
T4 sequence (O15085 42-136, limits assumed, looked up): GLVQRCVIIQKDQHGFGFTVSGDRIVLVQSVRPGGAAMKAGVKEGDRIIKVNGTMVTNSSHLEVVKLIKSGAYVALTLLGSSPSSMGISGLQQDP

DFNB31_2, Q9P202 = molecular target: T5, DFNB31_2, Q9P202
T5 sequence (Q9P202 274-371, limits assumed, looked up): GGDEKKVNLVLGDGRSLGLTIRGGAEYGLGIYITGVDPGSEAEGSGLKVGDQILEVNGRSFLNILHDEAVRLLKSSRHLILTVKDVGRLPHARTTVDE

TJP1_2, Q07157 = molecular target: TJP1_2, Q07157
MPP2, Q14168 = molecular target: T6, MPP2, Q14168
T6 sequence (Q14168 180-250, limits assumed, looked up): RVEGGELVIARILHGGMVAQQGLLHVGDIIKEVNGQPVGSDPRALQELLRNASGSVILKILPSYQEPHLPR

RADIL, Q96JH8 = molecular target: T7, RADIL, Q96JH8
T7 sequence (Q96JH8 971-1071, limits assumed, looked up): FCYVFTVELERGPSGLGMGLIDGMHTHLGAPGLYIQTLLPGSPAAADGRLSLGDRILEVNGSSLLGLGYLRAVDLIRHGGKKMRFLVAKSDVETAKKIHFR

MAGI2_4, Q86UL8 = molecular target: MAGI2_4, Q86UL8
MAGI1_2, Q96QZ7 = molecular target: MAGI1_2, Q96QZ7
SIPA1L2, Q9P2F8 = molecular target: T8, SIPA1L2, Q9P2F8
T8 sequence (Q9P2F8 945-1036, limits assumed, looked up): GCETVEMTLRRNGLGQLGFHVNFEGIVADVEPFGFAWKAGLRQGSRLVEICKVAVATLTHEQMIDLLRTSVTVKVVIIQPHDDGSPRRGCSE

FRMPD3, Q5JV73 = molecular target: FRMPD3, Q5JV73
GRIP2_7, Q9C0E4 = molecular target: GRIP2_7, Q9C0E4
MAGI2_2, Q86UL8 = molecular target: MAGI2_2, Q86UL8
GRIP1_3, Q9Y3R0 = molecular target: T9, GRIP1_3, Q9Y3R0
T9 sequence (Q9Y3R0 247-346, limits assumed, looked up): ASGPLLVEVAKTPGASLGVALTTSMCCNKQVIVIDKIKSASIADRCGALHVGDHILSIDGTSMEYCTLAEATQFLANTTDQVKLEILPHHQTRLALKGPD

TJP2_1, Q9UDY2 = molecular target: TJP2_1, Q9UDY2
TJP3_3, O95049 = molecular target: T10, TJP3_3, O95049
T10 sequence (O95049 375-456, limits assumed, looked up): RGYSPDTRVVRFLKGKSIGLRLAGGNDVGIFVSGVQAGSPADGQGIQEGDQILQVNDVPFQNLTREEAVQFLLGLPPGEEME

Inadl_5, Q8NI35 = molecular target: Inadl_5, Q8NI35
MAST1, Q9Y2H9 = molecular target: MAST1, Q9Y2H9
DLG5_1, Q8TDM6 = molecular target: DLG5_1, Q8TDM6
LNX2_3, Q8N448 = molecular target: T11, LNX2_3, Q8N448
T11 sequence (Q8N448 463-564, limits assumed, looked up): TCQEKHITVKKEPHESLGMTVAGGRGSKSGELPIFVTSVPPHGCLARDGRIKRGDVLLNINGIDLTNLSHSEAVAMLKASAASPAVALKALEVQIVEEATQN

DFNB31_1, Q9P202 = molecular target: T12, DFNB31_1, Q9P202
T12 sequence (Q9P202 135-233, limits assumed, looked up): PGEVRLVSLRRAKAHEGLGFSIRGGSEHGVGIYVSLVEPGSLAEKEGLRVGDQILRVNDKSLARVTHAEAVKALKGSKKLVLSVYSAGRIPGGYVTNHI

CASK, O14936 = molecular target: CASK, O14936
GIPC2, Q8TF65 = molecular target: GIPC2, Q8TF65
[1] = plain residues with an end cap or a label only (N-terminal biotin on a linker: ado-ado)
[2] = plain residues with an end cap or a label only (N-terminal biotin on a linker: ahx)

Chain of FRMPD3, Q5JV73 (Q5JV73 12-100): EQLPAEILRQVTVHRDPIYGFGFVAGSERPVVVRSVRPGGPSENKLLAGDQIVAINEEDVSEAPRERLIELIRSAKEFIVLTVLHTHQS
Chain of MAST1, Q9Y2H9 (Q9Y2H9 962-1065): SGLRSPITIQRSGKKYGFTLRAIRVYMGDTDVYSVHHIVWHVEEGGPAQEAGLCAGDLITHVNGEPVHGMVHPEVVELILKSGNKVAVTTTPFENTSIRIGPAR
Chain of GRIP2_7, Q9C0E4 (Q9C0E4 934-1023): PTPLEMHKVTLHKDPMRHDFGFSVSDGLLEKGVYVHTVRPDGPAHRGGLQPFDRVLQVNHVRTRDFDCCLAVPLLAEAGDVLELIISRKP
Chain of CASK, O14936 (O14936 487-570): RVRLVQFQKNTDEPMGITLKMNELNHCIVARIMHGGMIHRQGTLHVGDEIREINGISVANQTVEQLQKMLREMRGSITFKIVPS
Chain of GIPC2, Q8TF65 (Q8TF65 112-203): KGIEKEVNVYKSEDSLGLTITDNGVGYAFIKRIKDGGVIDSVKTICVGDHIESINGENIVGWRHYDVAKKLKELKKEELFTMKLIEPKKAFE
Chain of DLG5_1, Q8TDM6 (Q8TDM6 617-713): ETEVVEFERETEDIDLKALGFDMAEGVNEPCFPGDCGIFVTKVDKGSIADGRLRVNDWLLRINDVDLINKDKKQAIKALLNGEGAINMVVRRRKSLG
Chain of MAGI1_2, Q96QZ7 (Q96QZ7 456-580): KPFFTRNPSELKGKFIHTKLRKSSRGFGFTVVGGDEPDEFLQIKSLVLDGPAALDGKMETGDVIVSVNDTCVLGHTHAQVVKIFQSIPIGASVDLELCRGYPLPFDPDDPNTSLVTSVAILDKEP
Chain of MAGI2_2, Q86UL8 (Q86UL8 410-522): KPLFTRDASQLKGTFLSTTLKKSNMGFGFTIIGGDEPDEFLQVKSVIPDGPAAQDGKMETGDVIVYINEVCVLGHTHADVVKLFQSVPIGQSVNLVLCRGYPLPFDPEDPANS
Chain of MAGI2_4, Q86UL8 (Q86UL8 772-865): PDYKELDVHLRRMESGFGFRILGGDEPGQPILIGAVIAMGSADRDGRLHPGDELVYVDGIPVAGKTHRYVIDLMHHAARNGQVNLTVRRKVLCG
Chain of TJP2_1, Q9UDY2 (Q9UDY2 24-128): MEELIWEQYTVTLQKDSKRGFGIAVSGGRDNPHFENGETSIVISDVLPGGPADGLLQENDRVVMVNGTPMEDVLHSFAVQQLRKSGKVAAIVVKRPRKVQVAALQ
Chain of DLG1_2, Q12959 (Q12959 314-412): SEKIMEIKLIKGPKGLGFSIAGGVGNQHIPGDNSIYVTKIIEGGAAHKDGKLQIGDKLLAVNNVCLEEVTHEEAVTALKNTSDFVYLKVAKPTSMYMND
Chain of Inadl_5, Q8NI35 (Q8NI35 673-780): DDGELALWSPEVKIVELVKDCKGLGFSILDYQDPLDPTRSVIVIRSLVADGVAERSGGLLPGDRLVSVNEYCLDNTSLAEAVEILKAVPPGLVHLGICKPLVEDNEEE
Chain of TJP1_2, Q07157 (Q07157 181-274): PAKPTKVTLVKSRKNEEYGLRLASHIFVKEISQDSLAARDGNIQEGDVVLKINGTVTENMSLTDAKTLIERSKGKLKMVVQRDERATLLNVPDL
Chain of FRMPD2_1, Q68DX3 (Q68DX3 770-861): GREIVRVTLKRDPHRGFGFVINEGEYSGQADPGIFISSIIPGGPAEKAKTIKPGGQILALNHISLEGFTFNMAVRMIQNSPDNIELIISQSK

ARGPPRESEV [FAM110D, Q8TAY7]
pKd (LIN7C, Q9NUP9; [1]): 3.67
pKd (FRMPD2_1, Q68DX3; [1]): below the threshold
pKd (SNTG2, Q9NY99; [1]): 4.4
pKd (PARD3B_1, Q8TEW8; [1]): below the threshold
pKd (DLG1_2, Q12959; [1]): 5.48
pKd (ARHGEF11, O15085; [1]): 4
pKd (DFNB31_2, Q9P202; [1]): 3.57
pKd (TJP1_2, Q07157; [1]): below the threshold
pKd (MPP2, Q14168; [1]): below the threshold
pKd (RADIL, Q96JH8; [1]): below the threshold
pKd (MAGI2_4, Q86UL8; [1]): 4.09
pKd (MAGI1_2, Q96QZ7; [1]): 4.32
pKd (SIPA1L2, Q9P2F8; [1]): below the threshold
pKd (FRMPD3, Q5JV73; [1]): below the threshold
pKd (GRIP2_7, Q9C0E4; [1]): below the threshold
pKd (MAGI2_2, Q86UL8; [1]): 4.56
pKd (GRIP1_3, Q9Y3R0; [1]): below the threshold
pKd (TJP2_1, Q9UDY2; [1]): below the threshold
pKd (TJP3_3, O95049; [1]): below the threshold
pKd (Inadl_5, Q8NI35; [1]): below the threshold
pKd (MAST1, Q9Y2H9; [1]): 4.48
pKd (DLG5_1, Q8TDM6; [1]): below the threshold
pKd (LNX2_3, Q8N448; [1]): below the threshold
pKd (DFNB31_1, Q9P202; [1]): 3.75
pKd (CASK, O14936; [1]): below the threshold
pKd (GIPC2, Q8TF65; [1]): 4.32

NTLNRKTTPV [CACNG8, Q8WXS5]
pKd (LIN7C, Q9NUP9; [1]): below the threshold
pKd (FRMPD2_1, Q68DX3; [1]): below the threshold
pKd (SNTG2, Q9NY99; [1]): 3.75
pKd (PARD3B_1, Q8TEW8; [1]): below the threshold
pKd (DLG1_2, Q12959; [1]): 5.05
pKd (ARHGEF11, O15085; [1]): 4.08
pKd (DFNB31_2, Q9P202; [1]): below the threshold
pKd (TJP1_2, Q07157; [1]): below the threshold
pKd (MPP2, Q14168; [1]): below the threshold
pKd (RADIL, Q96JH8; [1]): below the threshold
pKd (MAGI2_4, Q86UL8; [1]): 3.69
pKd (MAGI1_2, Q96QZ7; [1]): 4.64
pKd (SIPA1L2, Q9P2F8; [1]): below the threshold
pKd (FRMPD3, Q5JV73; [1]): below the threshold
pKd (GRIP2_7, Q9C0E4; [1]): below the threshold
pKd (MAGI2_2, Q86UL8; [1]): 4.93
pKd (GRIP1_3, Q9Y3R0; [1]): below the threshold
pKd (TJP2_1, Q9UDY2; [1]): 4.05
pKd (TJP3_3, O95049; [1]): below the threshold
pKd (Inadl_5, Q8NI35; [1]): below the threshold
pKd (MAST1, Q9Y2H9; [1]): 4.17
pKd (DLG5_1, Q8TDM6; [1]): below the threshold
pKd (LNX2_3, Q8N448; [1]): below the threshold
pKd (DFNB31_1, Q9P202; [1]): 3.95
pKd (CASK, O14936; [1]): below the threshold
pKd (GIPC2, Q8TF65; [1]): below the threshold

TQKFRASTAL [FRMPD1, Q5SYB0]
pKd (LIN7C, Q9NUP9; [2]): 3.52
pKd (FRMPD2_1, Q68DX3; [2]): 3.77
pKd (SNTG2, Q9NY99; [2]): below the threshold
pKd (PARD3B_1, Q8TEW8; [2]): below the threshold
pKd (DLG1_2, Q12959; [2]): 3.62
pKd (ARHGEF11, O15085; [2]): 4.38
pKd (DFNB31_2, Q9P202; [2]): below the threshold
pKd (TJP1_2, Q07157; [2]): below the threshold
pKd (MPP2, Q14168; [2]): below the threshold
pKd (RADIL, Q96JH8; [2]): below the threshold
pKd (MAGI2_4, Q86UL8; [2]): 3.48
pKd (MAGI1_2, Q96QZ7; [2]): 4.97
pKd (SIPA1L2, Q9P2F8; [2]): below the threshold
pKd (FRMPD3, Q5JV73; [2]): below the threshold
pKd (GRIP2_7, Q9C0E4; [2]): below the threshold
pKd (MAGI2_2, Q86UL8; [2]): 4.18
pKd (GRIP1_3, Q9Y3R0; [2]): below the threshold
pKd (TJP2_1, Q9UDY2; [2]): below the threshold
pKd (TJP3_3, O95049; [2]): below the threshold
pKd (Inadl_5, Q8NI35; [2]): below the threshold
pKd (MAST1, Q9Y2H9; [2]): 4.44
pKd (DLG5_1, Q8TDM6; [2]): below the threshold
pKd (LNX2_3, Q8N448; [2]): below the threshold
pKd (DFNB31_1, Q9P202; [2]): below the threshold
pKd (CASK, O14936; [2]): below the threshold
pKd (GIPC2, Q8TF65; [2]): below the threshold
